# B1: BMP4: human recombinant BMP4 (manufactured by R&D), BMP signal transduction pathway activating substance (protein, UniProt P12644 293-408, looked up)
# Bone morphogenetic protein 4: SPKHHSQRARKKNKNCRRHSLYVDFSDVGWNDWIVAPPGYQAFYCHGDCPFPLADHLNSTNHAIVQTLVNSVNSSIPKACCVPTELSAISMLYLDEYDKVVLKNYQEMVVEGCGCR
# How the values were obtained:
# [1] = test system: human iPS cells (Ff-I01 strain); experiment: Neural tissue / neuroepithelium formation in cell aggregates, bright field observation; format: cell-based
# Description: At the time of the start of suspension culturing (day 0 after the start of suspension culturing, […]), Y27632 ([…]) were added to the above serum-free medium (FIG. 22). By day 2 after the start of suspension culturing, a cell aggregate was formed (step 2 completed, step 3 start) under any conditions. On day 3 or later from the start of suspension culturing, BMP4 was added under 3 conditions including the following conditions 1-3. • Condition 1: (+BMP4 addition once) On day 3 of suspension culturing, a medium (50 μl) free of Y27632 and SAG, and containing human recombinant BMP4 (manufactured by R&D) was added such that the final concentration of exogenous human recombinant BMP4 was 1.5 nM (55 ng/ml). On day 6 or later from the start of suspension culturing, a half amount of the medium was changed to a serum-free medium free of Y27632, SAG and human recombinant BMP4. • Condition 2: (+BMP4 addition twice) On day 3 of suspension culturing, a medium (50 μl) free of Y27632, SAG and containing human recombinant BMP4 (manufactured by R&D) was added such that the final concentration of exogenous human recombinant BMP4 was 1.5 nM (55 ng/ml). On day 6 from the start of suspension culturing, 50 μl of the medium was discarded, and 50 μl of a medium free of Y27632 and SAG and containing human recombinant BMP4 (manufactured by R&D) was added to maintain the final concentration of exogenous human recombinant BMP4 at 1.5 nM (55 ng/ml). On day 9 or later from the start of suspension culturing, a half amount of the medium was changed with a serum-free medium free of Y27632, SAG, and human recombinant BMP4. • Condition 3: (+BMP4 addition three times) On day 3 of suspension culturing, a medium (50 μl) free of Y27632, SAG and containing human recombinant BMP4 (manufactured by R&D) was added such that the final concentration of exogenous human recombinant BMP4 was 1.5 nM (55 ng/ml). On days 6 and 9 from the start of suspension culturing, 50 μl of the medium was discarded, and 50 μl of a medium free of Y27632 and SAG and containing human recombinant BMP4 (manufactured by R&D) was added to maintain the final concentration of exogenous human recombinant BMP4 at 1.5 nM (55 ng/ml). On day 12 or later from the start of suspension culturing, a half amount of the medium was changed with a serum-free medium free of Y27632, SAG and human recombinant BMP4. […]
# On day 3 after the start of suspension culturing, a medium (50 μl) free of Y27632 and SAG, and containing human recombinant BMP4 (manufactured by R&D) was added such that the final concentration of exogenous human recombinant BMP4 was 1.5 nM (55 ng/ml) or 5 nM (183 ng/ml). […]
# [2] = test system: human iPS cells (Ff-I01 strain); experiment: Immunostaining of aggregate sections for retinal tissue marker Chx10; format: cell-based
# Description: (§1) Cell aggregates on day 16 after the start of suspension culturing were fixed with 4% para-formaldehyde to prepare frozen sections. These frozen sections were immunostained for Chx10 (anti-Chx10 antibody, Exalpha, sheep), which is one of the retinal tissue markers. These immunostained sections were observed under a fluorescence microscope.
# Cell aggregates on day 16 after the start of suspension culturing were fixed with 4% para-formaldehyde to prepare frozen sections. These frozen sections were immunostained for Chx10 (anti-Chx10 antibody, Exalpha, sheep), which is one of the retinal tissue markers, and observed under a fluorescence microscope. […] In addition, the proportion of Chx10-positive cells in the total cells is about 80% under conditions with the addition of BMP4 twice to maintain the final concentration of 5 nM (FIG. 23, D)
# The cell aggregates on day 19 after the start of suspension culturing were fixed with 4% para-formaldehyde to prepare frozen sections. These frozen sections were immunostained for Chx10 (anti-Chx10 antibody, Exalpha, sheep), which is one of the retinal tissue markers. These immunostained sections were observed under an inverted fluorescence microscope. As a result, the proportion of Chx10-positive cells in the total cells is about 70% under conditions with the addition of BMP4 twice to maintain the final concentration of 1.5 nM ([…]). In addition, the proportion of Chx10-positive cells in the total cells is about 90% under conditions with the addition of BMP4 twice to maintain the final concentration of 5 nM (FIG. 34, D).
# as §1, with “The thus-prepared cell” for “Cell”, “19” for “16”, “markers, and” for “markers. These immunostained sections were”
molecule,measurement,setting,value
B1,cell aggregate and neural tissue formation,"[1]; SAG 300 nM 2 days in step 1, SAG 300 nM in step 2, BMP4 1.5 nM added 1, 2 or 3 times in step 3, day 16",a neural tissue could be formed efficiently
same,cell aggregate and neural tissue formation,"[1]; SAG 300 nM 2 days in step 1, SAG 1000 nM in step 2, BMP4 at 1.5 nM and 5 nM in step 3, day 16",a neural tissue could be formed efficiently
same,cell aggregate and neural tissue formation,"[1]; StemFit AK03N, SAG 300 nM 2 days in step 1, SAG 500 nM in step 2, BMP4 at 1.5 nM or 5 nM, day 19",a neural tissue can be formed efficiently
same,proportion of Chx10-positive cells in the total cells,"[2]; SAG 300 nM 2 days in step 1, SAG 300 nM in step 2, BMP4 1.5 nM added 2 or 3 times, day 16",about 80%
same,proportion of Chx10-positive cells in the total cells,"[2]; SAG 300 nM 2 days in step 1, SAG 300 nM in step 2, BMP4 1.5 nM added once (day 3), day 16",about 60%
same,proportion of Chx10-positive cells in the total cells,"[2]; StemFit AK03, SAG 300 nM 2 days in step 1, SAG 1000 nM in step 2, BMP4 added twice to maintain 1.5 nM, day 16",about 70%
same,proportion of Chx10-positive cells in the total cells,"[2]; StemFit AK03, SAG 300 nM 2 days in step 1, SAG 1000 nM in step 2, BMP4 added twice to maintain 5 nM, day 16",about 80%
same,proportion of Chx10-positive cells in the total cells,"[2]; StemFit AK03N, SAG 300 nM 2 days in step 1, SAG 500 nM in step 2, BMP4 added twice to maintain 1.5 nM, day 19",about 70%
same,proportion of Chx10-positive cells in the total cells,"[2]; StemFit AK03N, SAG 300 nM 2 days in step 1, SAG 500 nM in step 2, BMP4 added twice to maintain 5 nM, day 19",about 90%

# From US12492373B2, “Production method for nerve tissue” (Racthera Co., Ltd., priority 2014, dated 2025)
